Results published in the NTF2 design screens of Basanta et al. (2020).

Assay: protease stability score; higher = more stable; yeast display proteolysis, trypsin and chymotrypsin;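 further: relative to predicted unfolded state with 0 unfolded-like and 1 meaning tenfold more protease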

Sequence	protease stability score
HESEELAKHFSKIMDDLIRTGDEEHFDRLLDPNVKLDVNGRTIHGRERVSEIIHEKNKELGIDQIHVRKQDEHIIGDKLILHIEIIYGDKRIELIIITRKINGKWRIESVELREH	0.876
HESEEYAHRVSKDFDRAMRTGDWLRLLELIDPNARLHVGEFHVHGMEDIEKWIRHFLHRVDVIHIRVRDMRVQGEKVDVDYEIEERQGDKRRHYESRTIILKIDGKWHIKEIHIH	1.14
HESHEFVKEAFRLWVESLRTGDEKTLSRYADPHVRVTYDGREFHGRDWYVKLMDELRVNDVKLDDVNVQGEKIDIEGTIDGQVNGQDREIKVRLHAEKINGRWVNKKIQID	1.11
HESHNRVERILEEFFKAVETGDWRVLHELLDPHVRLDVDGRDHHGREDFSRFMKEIRVEEFRVTHLQIQGDKANVQSHRVGTYNGKRQEIRTWIHITKIDGQWYITEVTME	0.544
HESQEHDDRILDLFETLLRTGDWERLFQLADPHVRLRLHYGDKEIHQVGREEVVRMFLWWRERFGVDHFEVHEVRVVDGVNHIDGRLTVNGRNRRTEIVFIVVNGRIKEFEVRHR	2.24
HESTEYADYMLKFLSLVESTGNEDLFKRLFDPDVRLVINGVDTHGWESYHEHRKRVDHKEVEHSEIKHVEVQGEKIIVHGILHVRVKIGDKRFSFEIRFHLIVHKFNGKWHITSIEFH	0.848
HETEKLTKEYIREELEVLKTGDEKETRELLDPDVRIEQGEFSTHGWDYATHWLRTFTERVKGAQFEKKTIRVINGRVNIHMLMHFNGREERIDLISVKIDGRWLIKSVHIHIE	0.208
HETEQRLEHHIKLWFKAFMTGDEELLKFLADPNVRVDDDVNGVRFLNIGMEKLAEWLRKWLRRVPNVKFDLEDVKIFENRTHIDSRLDIDGKEIELHIHLILINGRIQEIRFSVK	1.49
HETKHLVDKFIELFKHNLETGDWDRLLELADPRTRVHVGDKTLIGMHEFRELHLRLIEKHGIKLNYYVHEVHVQGDKAHVDNEREEDYNGRVVSFRIRMHVEKFDGRWYLTRIEFN	1.33
HEVERIVEESDRHLLNSMLTGNEDELWRLLDPNARLDINGVQSIGRDEAYRVFHELLNHLRLREVDVHEMDVQGDKAHLTFKFNGDFNGKRDYLDFQVNSLKINGRWFLHSSSLI	0.529
HEWERLHHEAMEHFLRLQETGNEKTLQELADPDARLHYNGKDYHGRESMLKFWIELGVDHIHLHDFRIQGDKMEIHMDDHQGDKRLHTIIIHRKVNGQWHLQSEKIH	0.548
HEYEEEVTKAIEVLLHLLMTGDFDQMLHLADPNYRVDINGQEYIGREWFEVIRDKFKNVKIKDMHIDHVIFIGDKVIIHSREHRQQGDKERTFTVVLYSRKINGQWVHTSVKFS	1.59
HEYEEWSEIAMRLWILAERTGDERHIAHLLDPHVRYVFNGVEVIGMELITELVKRRWEQWRVHVEIEDRKFQGNFSKIEGHLRLHVGDKTEERRVEYRMDIVDGRIREISVIIE	1.37
HHDEELSEHMAHNWLEALLTGDEDMLRELADPHVRYRFNGRQEIGWEHLLRFVNEIRIHELEPRHIQIDLVNGQVHVHIEGTIDGRIGDKDDRRRTTIVLNIRKINGKWILESISMEVE	1.68
HKEHRDAHELLERWLRSSVTGDEDTLSELLDPNVKIEIGNKHVHGREEVSRHFSERAHRIDHVRLHVDDLYIQGEKVHVDLTLEINVGDWRQTIKVEYVVLKVNGRWRIHTIHER	0.674
HKLDEITKDMLEIFEKHSQTGDFQSLAKNVDPHARVDWDGRQFHGREDVQEVMIRLGVDHIEFKRIDIQGEWVHMDGQVYVNGRTTRTEFVSLKVNGRWYIHELRVR	0.875
HQDDDELKHFLELFIEQHETGDEHRLRKMADPRTRVEINGQEIHGMDQLVRHWLEFRKRMGVDHTHVILEHFHFQGDKVSARLRLIFIVGDKTFETDMNVIVVKVDGKWLIHEVSTR	1.22
HQEDRLVFALAKDWIDNLETGDEDKMLQRADPRRQLIIDGRTFHGWENTYENMKQIRIEHLEIRDMTVVDGRIHINTHSILIINGRRFETETSIRLVVVNGVIQDVDININ	0.081
HRDEELSEEILRLILEILRTGDEDELRRLIDPHVRVSIGDKEKHGREWYLELVNVAGIKYIELKRIHVIGDKAHFETYVHVDGRDISLQFIILKINGKWFITSIRIETR	1.4
HRVETEAHHMMKLLEHWLQTGDEEMWKTYADPDVRIDVDGKTLHGRDNFEHVLRMYGIKHRHIRDSHYHFIGDYLHYNLDVEVHFNGKDLKTHFTFQIRKVDGRWELERVHIRVH	0.941
HSDEEKSRRATKWFIKIFHTGDEDRFHELADPNTRVIIGDKDFIGREKAVDAIHRIWEHLGIDVYDVEDIRIINGVVEVDTSFHINGRTIKTTTRIEKVNGQWVVDEVHFK	1.23
HSLEKDAHEAFELFADTVRTGDEKLMQHLIDPNVRFDYNGVDLHGWKDVSRLMIELRIEDVRLTHVHVIGNKVHLDTRIHSHVNGRRIDTEMHVDIEKVNGRWVIRRIEHR	1.47
IEQKEAWDEVYRIFVEAVRTGDWKSFERLLDPHTRIHFENREFHGREALEHDREKYKNMKLEHIEIKDQRVQGDKVIQFSHVVGNIDGRRLRFDIEIQFSKVDGVWTIELVIVR	1.52
KDTKRALDELSELELHADETGDWRVKHELLDPHTRIVIGDKTIHGREDMLTLMKKLQEHWRLKTIEIHHTEVVDGRIDADTILVGIVDGVERELRVRLIILKINGRWIYTSIKFD	1.14
KEDEELSSRFMLLMWHLMVTGNWKILEELADPNVRFIDEHHTLHGREEFVRTFKDWFDEIKNMKIHVRDSTVQGEKSNIHGELNFNGKRVDYTFIILFFNGRLHQIELRYH	-0.069

Sequence	protease stability score
KEDEEYFREVTKNLLELIETGDFDMLTELLDPHMLLDVNGRTFHGWELAVEWYRQHVKKFGIDNIKVTLKHIHIQGNKIHLDVEVEIGDKTERREFVLTKINGRWRFDSVVVR	2.19
KEDSEIAEDIIRLLNHASSTGDEETFTHLADPNVRIKIGDKESHGREEWSRTLTELRVEFKDMKIRDVDIQGEYVFVEGELRVEITVNGRTIEIHYESHFIMEKVNGRWHVHSVMML	0.222
KEEEDIVRHVVEKFIKNLLTGDFHSLMHMADPNVLVNFNGKENIGRELAVKTIERWWKELGVKHFEHFDLHDITIFDGKASLDTRVHGEINGKVHDFKTRIIIQKINGRWTVHSVEFE	1.22
KEEEEDLKKATEDMMHLLSTGDWDTIYRLADPNTRIEINGREEVGMDLYVDKSMEEFRRLGIDKIHIHLHSVTNVNGKIYIDTRYEFNGVKIRMHIVIEKINGRWLLRTLSVK	1.52
KEEEEEARQAWDLLHNIMKTGDEHQLMSLVDPNYLNIAEGREFHGREVFYHYMHELRVKWEHMHLKDYRVYNGRIRTEEHLVVHYEYGDKHDSLRTDVHLKDVKINGRWRVRHLHII	0.78
KEEEEFAKHILHMLRYLWETGDEEEFERMADPNARLIQGDKHFHGREEITKSVKELRVRHFEEKHIHYQGEKSLIIGHVDGEINGQRHEIDVIIRLEVVNGKLKRIRIEYR	0.239
KEEEEKLERLAELVIELFLTGDWKTLHSLLDPHYRSEIDGRTVHGRESHQTLLEEILRHLRIRRVHIEEYRIIDGVAWIDSRITLEINGRTVDTHMHIHLEFFNGRLHSIRVEIH	2.47
KEEEELVKKMLDLLVEAWETGDWKLLDHLLDPNVKLEVDGVLHIGREEAVRVMLEFHKRVDHVEVRDRDFRIQGEKVRHEVELRLHQGEFHVITRIEIEVTKVNGRWQMKHIRIE	2.56
KEEETHAREVSEANEHLLETGDWRRLSHLLDPNAKITINGRHFHGREFFTELQKRHEDMLGIKHRHIEDSTVVGDKVIIHTYYHVDGKTLDIEIIIVVINGRHERVEWRFK	0.782
KEEEWLAREWLRLWFEAVMTGDEHRLNHMLDPHVRTIVGDYEDVGRERSSELFLEIRLDHMELTSLDVQGDYAHLEIRVDGTIDGKRIETEMRVTLNIVDGRFRTVEHRIS	0.755
KEHEEILHHLAELFFENLLTGDWRLLTELMDPSARVHIGEWRSHGREHASRVMLEEFRQLRVRDVKLTDLKVIDGRMEIDTRMRIEVDGREHIHTIHIRIYIYNGRMDEIHLEVR	0.125
KEHEKFVEDFARLLINIWTTGDEDLFNELADPHVRVNFNGVEHHGRENVIRYIERVLREIRIDHVQTRDWTVIDGVMHIEGHIHIHFDGRQRTHDVIFHIIIWNGKMKNVIVSFR	1.67
KEHNDALELMYHWLIHLWKTGDERDIYELFDPNVRVDVNGRELHGMELVSHIELREMKRLGFKVIHIELTSVRYIGDKIEIDTIFHLHVGEYTERREHHILSYKVDGRWFVKESEVN	1.18
KEKEEIARMMLKELIKTIRTGDPEEWHKLFDPHVLIVIDGREIHGMEEHTRLLRELGIDRIELHTQHERHVSVQGDKVHLDIDVDGMFDGQKRRFHMHIDALKVNGQWVIQYIEIR	1.96
KELDEKVDTAIRIFHDVMLTGDEEKLIKLMDPNTRIRYNGRELHGWESHIKLREEELHELGVERVVHIFHNREIRAYDGVADIKGELEIRFNGRTVRHEFRIKFEKVNGRWVVREIEIH	1.31
KELEEHELRLAKDMSKVIETGDEERLRRLADPHVKVHINGKTRHGREWMSHLLNLMLTELRVRHLHIKDVFEVNGVAHSETELDGEVNGREIELHTEIILVVVNGKIQRLEIRIE	1.06
KELERDSREATHTFLRDIKTGDFESLHRLADPTTRMHIGDKEFHGWELLIHVIAEFLRKVPNMRTTLRDERVQGEKVEVRVDIHYNGQDRHIELEIHKVNGKWWIKVMEFE	0.88
KEQDHLIKNVLERLFRAFHTGNEEELEKLIDPHAMIIIGDKHFHGREEVLHTLVNLVNEIRFRDMELKDSRLFDGRVNIDLDEHIRQGDKHHLYEVHLILYKFDGRWFIRKFEIR	1.46
KEREELLKTAADLMYHIWHTGDFEKLFKNVDPHVKINVGDKTYVGREQMHKIFKELKERLGFDVSSLEHRHLDMQGDFIFNELHVRLHQGDFEIQSWIHVIIYKVNGKWVVHEIKLHWD	1.6
KESEEDARKFWEKMVEDNRTGDWDSFEKLVDPHVKMLFNGREYHGRDELLDLFRHIRFKDHEIHDMKVIGNKVRMDTRVHLNVNGREISVDTHLVVEKINGRWVLHSVLFH	1.62
KHEEDEWKRMIDIVLHMLKTGNFELLERLADPHARSHIDGVRIHGREKFVEILFEVWHFYKNLTISINHIDVFNGVIVIHGRLDINGRQVEVHIVVTKINGKWFLESHSEIFH	0.572
LEDEEMLEEVDKRLVHAFLTGDFNTIERMLDPDTKVRINGRESIGRENVAKVLHEERRHMRLDIIEIRRIRLVGEFIHSDTRLDININGRRIKFTFRIIVLKINGQWIVESLEID	2.06
LEEEEEAKTMIEHHFDNFRTGDEDLIHKLADPHVRVLYNGKILHGREKLVEMIHKLVEKMGVDHLEYRHRDMKIWDGQVEVHGERIIRQGDKTYRFDVILFVLKVDGRWVIKEVRVQ	1.47
LEEEEETKEMNDKMRHVMETGDEDSFRKLADPHVRVDINGREFHGMDNAAEIMSHLRIHKFHVHDTRNINGKVQVESRLTRIIDGKKQHVRTEWIIVKIDGQWIFREWIVK	0.58
LEEEEIARELLKRILDMLFTGDEEVLSELLDPNVRVDFNGVEIHGREHVREWMHHLRFRHLHLRDFRVQGDKLHLDTETRGEIDGQEVRIETRLIARKVDGRWILKSREFV	1.53
